Legend:
human MSLN antigen = target: T1, human MSLN antigen (human, UniProt Q13421 296-580, limits assumed); assay: Octet BLI; bsAb on anti-human Fc sensor, human MSLN as analyte, one concentration
T1 construct: Soluble antigen for BLI; also called Mesothelin; MESO
Source text: Variants of MESO-C were engineered by introducing point substitutions into the variable heavy region (VH) and the variable light region (VL) to generate 11 VH variants and 16 VL variants (sequences for which are depicted in FIG. 18 as H1.1-H1.13 and in FIG. 19 as L1.1-L1.18). An additional 4 VL variants were generated by combining useful point substitutions (sequences for which are depicted in FIG. 19 as L1.19-L1.22). WT and variant variable heavy regions were paired with WT and variant variable light regions to generate variant variable regions (Fvs) which were produced in the context of anti-MSLN×anti-CD3 bispecific antibodies. The bispecific antibodies were screened for MSLN binding affinity using Octet®, a BioLayer Interferometry (BLI)-based method. Experimental steps for Octet® generally include the following: Immobilization (capture of ligand to a biosensor); Association (dipping of ligand-coated biosensors into wells containing the analyte); and Dissociation (returning of biosensors to well containing buffer). In an initial screening, anti-human Fc sensors were used to capture the bispecific mAbs and dipped into human MSLN antigen (one concentration to screen large library). The resulting dissociation constant of illustrative variants (KD), association rate (kₐ), dissociation rate (kd), as well as sensorgram response are depicted in FIG. 20. In further screening of favorite variants identified in the initial screen (and combination variants), bispecific mAbs were dipped into multiple concentrations of human MSLN antigen, data for which are depicted in FIG. 21 (from various screens).

cyno MSLN = target: T2, cyno MSLN (Macaca fascicularis (cynomolgus)); assay: Octet BLI; bsAb on anti-human Fc sensor, cyno MSLN as analyte, one concentration
T2 construct: soluble antigen for Octet; also called cynomolgus MSLN

T1 sequence (Q13421 other isoform, or with tags, fused parts or gaps limits assumed): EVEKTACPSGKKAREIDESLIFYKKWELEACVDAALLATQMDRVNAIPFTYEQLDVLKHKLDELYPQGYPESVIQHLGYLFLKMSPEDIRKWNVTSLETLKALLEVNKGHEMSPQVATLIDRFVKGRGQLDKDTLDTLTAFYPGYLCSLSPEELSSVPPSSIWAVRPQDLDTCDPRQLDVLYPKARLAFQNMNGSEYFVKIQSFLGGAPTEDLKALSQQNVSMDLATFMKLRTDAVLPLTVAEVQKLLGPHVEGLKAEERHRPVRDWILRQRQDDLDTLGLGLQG

Row | Binder | Kd (human MSLN antigen) [nM] | Response (human MSLN antigen) | koff (human MSLN antigen) [s⁻¹] | kon (human MSLN antigen) [M⁻¹ s⁻¹] | Kd (cyno MSLN) [nM] | Response (cyno MSLN) | koff (cyno MSLN) [s⁻¹] | kon (cyno MSLN) [M⁻¹ s⁻¹]
1 | XENP32555 (bispecific antibody, 1+1 Fab-scFv-Fc bsAb; VH D55G, VL WT (Kabat); also called MESO-C H1.6_L1) Fab-Fc heavy chain (anti-MSLN VH): QVQLVQSGAEVKKPGASVKVSCKASGYTFTSYWMHWVRQAPGQGLEWMGMIHPNSGNTIYYEKFQGRVTMTVDKSISTAYMELSRLRSDDTAVYYCAIIITPVVPKFDYWGQGTLVTVSSASTKGPSVFPLAPSSKSTSGGTAALGCLVKDYFPEPVTVSWNSGALTSGVHTFPAVLQSSGLYSLSSVVTVPSSSLGTQTYICNVNHKPSDTKVDKKVEPKSCDKTHTCPPCPAPPVAGPSVFLFPPKPKDTLMISRTPEVTCVVVDVKHEDPEVKFNWYVDGVEVHNAKTKPREEEYNSTYRVVSVLTVLHQDWLNGKEYKCKVSNKALPAPIEKTISKAKGQPREPQVYTLPPSREEMTKNQVSLTCDVSGFYPSDIAVEWESDGQPENNYKTTPPVLDSDGSFFLYSKLTVDKSRWEQGDVFSCSVMHEALHNHYTQKSLSLSPGK scFv-Fc heavy chain (anti-CD3 H1.30_L1.47): not shown light chain (anti-MSLN VL): DIVMTQSPDSLAVSLGERATINCKASHDVGTSVAWYQQKPGQSPKLLIYWASTRHTGVPDRFTGSGSGTDFTLTISSLQAEDVAVYFCQQYSSYPLTFGAGTKLEIKRTVAAPSVFIFPPSDEQLKSGTASVVCLLNNFYPREAKVQWKVDNALQSGNSQESVTEQDSKDSTYSLSSTLTLSKADYEKHKVYACEVTHQGLSSPVTKSFNRGEC | 0.684 | 1.23 | 0.000375 | 549000 | 0.603 | 1.11 | 0.000342 | 566000
2 | XENP32551 (bispecific antibody, 1+1 Fab-scFv-Fc bsAb; VH W32Y, VL WT (Kabat); also called MESO-C H1.2_L1) Fab-Fc heavy chain (anti-MSLN VH): QVQLVQSGAEVKKPGASVKVSCKASGYTFTSYYMHWVRQAPGQGLEWMGMIHPNSDNTIYYEKFQGRVTMTVDKSISTAYMELSRLRSDDTAVYYCAIIITPVVPKFDYWGQGTLVTVSSASTKGPSVFPLAPSSKSTSGGTAALGCLVKDYFPEPVTVSWNSGALTSGVHTFPAVLQSSGLYSLSSVVTVPSSSLGTQTYICNVNHKPSDTKVDKKVEPKSCDKTHTCPPCPAPPVAGPSVFLFPPKPKDTLMISRTPEVTCVVVDVKHEDPEVKFNWYVDGVEVHNAKTKPREEEYNSTYRVVSVLTVLHQDWLNGKEYKCKVSNKALPAPIEKTISKAKGQPREPQVYTLPPSREEMTKNQVSLTCDVSGFYPSDIAVEWESDGQPENNYKTTPPVLDSDGSFFLYSKLTVDKSRWEQGDVFSCSVMHEALHNHYTQKSLSLSPGK scFv-Fc heavy chain (anti-CD3 H1.30_L1.47): not shown light chain (anti-MSLN VL): DIVMTQSPDSLAVSLGERATINCKASHDVGTSVAWYQQKPGQSPKLLIYWASTRHTGVPDRFTGSGSGTDFTLTISSLQAEDVAVYFCQQYSSYPLTFGAGTKLEIKRTVAAPSVFIFPPSDEQLKSGTASVVCLLNNFYPREAKVQWKVDNALQSGNSQESVTEQDSKDSTYSLSSTLTLSKADYEKHKVYACEVTHQGLSSPVTKSFNRGEC | 1.6 | 1.19 | 0.000773 | 483000 | 1.66 | 1.1 | 0.000822 | 495000
3 | XENP32553 (bispecific antibody, 1+1 Fab-scFv-Fc bsAb; VH H52N, VL WT (Kabat); also called MESO-C H1.4_L1) Fab-Fc heavy chain (anti-MSLN VH): QVQLVQSGAEVKKPGASVKVSCKASGYTFTSYWMHWVRQAPGQGLEWMGMINPNSDNTIYYEKFQGRVTMTVDKSISTAYMELSRLRSDDTAVYYCAIIITPVVPKFDYWGQGTLVTVSSASTKGPSVFPLAPSSKSTSGGTAALGCLVKDYFPEPVTVSWNSGALTSGVHTFPAVLQSSGLYSLSSVVTVPSSSLGTQTYICNVNHKPSDTKVDKKVEPKSCDKTHTCPPCPAPPVAGPSVFLFPPKPKDTLMISRTPEVTCVVVDVKHEDPEVKFNWYVDGVEVHNAKTKPREEEYNSTYRVVSVLTVLHQDWLNGKEYKCKVSNKALPAPIEKTISKAKGQPREPQVYTLPPSREEMTKNQVSLTCDVSGFYPSDIAVEWESDGQPENNYKTTPPVLDSDGSFFLYSKLTVDKSRWEQGDVFSCSVMHEALHNHYTQKSLSLSPGK scFv-Fc heavy chain (anti-CD3 H1.30_L1.47): not shown light chain (anti-MSLN VL): DIVMTQSPDSLAVSLGERATINCKASHDVGTSVAWYQQKPGQSPKLLIYWASTRHTGVPDRFTGSGSGTDFTLTISSLQAEDVAVYFCQQYSSYPLTFGAGTKLEIKRTVAAPSVFIFPPSDEQLKSGTASVVCLLNNFYPREAKVQWKVDNALQSGNSQESVTEQDSKDSTYSLSSTLTLSKADYEKHKVYACEVTHQGLSSPVTKSFNRGEC | 0.687 | 1.16 | 0.00037 | 539000 | 0.585 | 1.06 | 0.000337 | 575000
4 | XENP32550 (bispecific antibody, 1+1 Fab-scFv-Fc bsAb; VH S31G, VL WT (Kabat); also called MESO-C H1.1_L1) Fab-Fc heavy chain (anti-MSLN VH): QVQLVQSGAEVKKPGASVKVSCKASGYTFTGYWMHWVRQAPGQGLEWMGMIHPNSDNTIYYEKFQGRVTMTVDKSISTAYMELSRLRSDDTAVYYCAIIITPVVPKFDYWGQGTLVTVSSASTKGPSVFPLAPSSKSTSGGTAALGCLVKDYFPEPVTVSWNSGALTSGVHTFPAVLQSSGLYSLSSVVTVPSSSLGTQTYICNVNHKPSDTKVDKKVEPKSCDKTHTCPPCPAPPVAGPSVFLFPPKPKDTLMISRTPEVTCVVVDVKHEDPEVKFNWYVDGVEVHNAKTKPREEEYNSTYRVVSVLTVLHQDWLNGKEYKCKVSNKALPAPIEKTISKAKGQPREPQVYTLPPSREEMTKNQVSLTCDVSGFYPSDIAVEWESDGQPENNYKTTPPVLDSDGSFFLYSKLTVDKSRWEQGDVFSCSVMHEALHNHYTQKSLSLSPGK scFv-Fc heavy chain (anti-CD3 H1.30_L1.47): not shown light chain (anti-MSLN VL): DIVMTQSPDSLAVSLGERATINCKASHDVGTSVAWYQQKPGQSPKLLIYWASTRHTGVPDRFTGSGSGTDFTLTISSLQAEDVAVYFCQQYSSYPLTFGAGTKLEIKRTVAAPSVFIFPPSDEQLKSGTASVVCLLNNFYPREAKVQWKVDNALQSGNSQESVTEQDSKDSTYSLSSTLTLSKADYEKHKVYACEVTHQGLSSPVTKSFNRGEC | 0.601 | 1.02 | 0.000314 | 522000 | 0.254 | 0.891 | 0.000146 | 576000
5 | XENP32554 (bispecific antibody, 1+1 Fab-scFv-Fc bsAb; VH N53Q, VL WT (Kabat); also called MESO-C H1.5_L1) Fab-Fc heavy chain (anti-MSLN VH): QVQLVQSGAEVKKPGASVKVSCKASGYTFTSYWMHWVRQAPGQGLEWMGMIHPQSDNTIYYEKFQGRVTMTVDKSISTAYMELSRLRSDDTAVYYCAIIITPVVPKFDYWGQGTLVTVSSASTKGPSVFPLAPSSKSTSGGTAALGCLVKDYFPEPVTVSWNSGALTSGVHTFPAVLQSSGLYSLSSVVTVPSSSLGTQTYICNVNHKPSDTKVDKKVEPKSCDKTHTCPPCPAPPVAGPSVFLFPPKPKDTLMISRTPEVTCVVVDVKHEDPEVKFNWYVDGVEVHNAKTKPREEEYNSTYRVVSVLTVLHQDWLNGKEYKCKVSNKALPAPIEKTISKAKGQPREPQVYTLPPSREEMTKNQVSLTCDVSGFYPSDIAVEWESDGQPENNYKTTPPVLDSDGSFFLYSKLTVDKSRWEQGDVFSCSVMHEALHNHYTQKSLSLSPGK scFv-Fc heavy chain (anti-CD3 H1.30_L1.47): not shown light chain (anti-MSLN VL): DIVMTQSPDSLAVSLGERATINCKASHDVGTSVAWYQQKPGQSPKLLIYWASTRHTGVPDRFTGSGSGTDFTLTISSLQAEDVAVYFCQQYSSYPLTFGAGTKLEIKRTVAAPSVFIFPPSDEQLKSGTASVVCLLNNFYPREAKVQWKVDNALQSGNSQESVTEQDSKDSTYSLSSTLTLSKADYEKHKVYACEVTHQGLSSPVTKSFNRGEC | 0.483 | 1.13 | 0.000268 | 555000 | 0.414 | 1.03 | 0.00023 | 555000

Further binders by falling Kd (human MSLN antigen), results first:

Row | Kd (human MSLN antigen) [nM] | Response (human MSLN antigen) | koff (human MSLN antigen) [s⁻¹] | kon (human MSLN antigen) [M⁻¹ s⁻¹] | Kd (cyno MSLN) [nM] | Response (cyno MSLN) | koff (cyno MSLN) [s⁻¹] | kon (cyno MSLN) [M⁻¹ s⁻¹] | Binder
6 | 0.469 | 1.18 | 0.000199 | 425000 | 0.395 | 1.07 | 0.000157 | 399000 | XENP32556 (bispecific antibody, 1+1 Fab-scFv-Fc bsAb; VH I94R, VL WT (Kabat); also called MESO-C H1.7_L1) Fab-Fc heavy chain (anti-MSLN VH): QVQLVQSGAEVKKPGASVKVSCKASGYTFTSYWMHWVRQAPGQGLEWMGMIHPNSDNTIYYEKFQGRVTMTVDKSISTAYMELSRLRSDDTAVYYCARIITPVVPKFDYWGQGTLVTVSSASTKGPSVFPLAPSSKSTSGGTAALGCLVKDYFPEPVTVSWNSGALTSGVHTFPAVLQSSGLYSLSSVVTVPSSSLGTQTYICNVNHKPSDTKVDKKVEPKSCDKTHTCPPCPAPPVAGPSVFLFPPKPKDTLMISRTPEVTCVVVDVKHEDPEVKFNWYVDGVEVHNAKTKPREEEYNSTYRVVSVLTVLHQDWLNGKEYKCKVSNKALPAPIEKTISKAKGQPREPQVYTLPPSREEMTKNQVSLTCDVSGFYPSDIAVEWESDGQPENNYKTTPPVLDSDGSFFLYSKLTVDKSRWEQGDVFSCSVMHEALHNHYTQKSLSLSPGK scFv-Fc heavy chain (anti-CD3 H1.30_L1.47): not shown light chain (anti-MSLN VL): DIVMTQSPDSLAVSLGERATINCKASHDVGTSVAWYQQKPGQSPKLLIYWASTRHTGVPDRFTGSGSGTDFTLTISSLQAEDVAVYFCQQYSSYPLTFGAGTKLEIKRTVAAPSVFIFPPSDEQLKSGTASVVCLLNNFYPREAKVQWKVDNALQSGNSQESVTEQDSKDSTYSLSSTLTLSKADYEKHKVYACEVTHQGLSSPVTKSFNRGEC
7 | 0.0805 | 0.86 | 4.69e-05 | 583000 | 0.0938 | 0.737 | 5.74e-05 | 612000 | XENP31701 (bispecific antibody, VH WT, VL WT; also called MESO-C H1_L1; copies: 1 + 1 + 1) heavy: QVQLVQSGAEVKKPGASVKVSCKASGYTFTSYWMHWVRQAPGQGLEWMGMIHPNSDNTIYYEKFQGRVTMTVDKSISTAYMELSRLRSDDTAVYYCAIIITPVVPKFDYWGQGTLVTVSSASTKGPSVFPLAPSSKSTSGGTAALGCLVKDYFPEPVTVSWNSGALTSGVHTFPAVLQSSGLYSLSSVVTVPSSSLGTQTYICNVNHKPSDTKVDKKVEPKSCDKTHTCPPCPAPPVAGPSVFLFPPKPKDTLMISRTPEVTCVVVDVKHEDPEVKFNWYVDGVEVHNAKTKPREEEYNSTYRVVSVLTVLHQDWLNGKEYKCKVSNKALPAPIEKTISKAKGQPREPQVYTLPPSREEMTKNQVSLTCDVSGFYPSDIAVEWESDGQPENNYKTTPPVLDSDGSFFLYSKLTVDKSRWEQGDVFSCSVMHEALHNHYTQKSLSLSPGK scFv-Fc: not shown light: DIVMTQSPDSLAVSLGERATINCKASHDVGTSVAWYQQKPGQSPKLLIYWASTRHTGVPDRFTGSGSGTDFTLTISSLQAEDVAVYFCQQYSSYPLTFGAGTKLEIKRTVAAPSVFIFPPSDEQLKSGTASVVCLLNNFYPREAKVQWKVDNALQSGNSQESVTEQDSKDSTYSLSSTLTLSKADYEKHKVYACEVTHQGLSSPVTKSFNRGEC

— US20240279356A1 (Xencor, published 2024)
